{"source": "paper PMC5681633", "about": "“SnO2 hollow nanotubes: a novel and efficient support matrix for enzyme immobilization” (Scientific Reports, 2017)", "proteins": {"B1": {"name": "Lipase from Thermomyces lanuginosus (Lipozyme TL 100 L) (Thermomyces lanuginosus) (protein)", "chain": "EVSQDLFNQFNLFAQYSAAAYCGKNNDAPAGTNITCTGNACPEVEKADATFLYSFEDSGVGDVTGFLALDNTNKLIVLSFRGSRSIENWIGNLNFDLKEINDICSGCRGHDGFTSSWRSVADTLRQKVEDAVREHPDYRVVFTGHSLGGALATVAGADLRGNGYDIDVFSYGAPRVGNRAFAEFLTVQTGGTLYRITHTNDIVPRLPPREFGYSHSSPEYWIKSGTLVPVTRNDIVKIEGIDATGGNNQPNIPDIPAHLWYFGLIGTCL", "notes": "commercial secreted enzyme preparation (Novozymes), free (not immobilised)"}}, "substrate": "CCCCCCCCCCCCCCCC(=O)Oc1ccc([N+](=O)[O-])cc1", "experiment": "hydrolysis assay, Michaelis-Menten nonlinear fit", "type": "biochemical, Thermomyces lanuginosus", "conditions": "free enzyme, optimum temperature and pH (50 °C, pH 8.5, 20 mM Tris-HCl), substrate 0.05-5.0 mM, p-NPP as the standard assay substrate", "source_text": "hydrolysis assay, Michaelis-Menten nonlinear fit on Lipase from Thermomyces lanuginosus (Lipozyme TL 100 L)", "data": [{"protein": "B1", "values": [{"measurement": "Km", "value": "0.71 ± 0.05", "unit": "mM"}]}]}
